Measurements: patent publication US20250145708A1 (GOOD T CELLS, published 2025)

Legend:
Assay in all cases: Lrig-1 peptide microarray (15-mers, 14 aa overlap), H6 at 1, 10 and 100 µg/ml
[1] = molecular target: T1, Lrig-1 epitope peptide SEQ ID NO: 19
T1 peptide: TEVRNTCFPHGPPI
Method: (§1) Pre-staining of a Lrig-1 peptide microarray copy using secondary and control antibodies in incubation buffer was performed to identify whether they can interact with antigen-derived peptides that can interfere with the main assays. Subsequent incubation of other Lrig-1 peptide microarray copies with the H6 monoclonal antibody of Production Example 8 (1 μg/ml, 10 μg/ml, and 100 μg/ml) in incubation buffer was followed by staining with secondary and control antibodies. Read-out was performed at a scanning intensity of 7/7 (red/green) using the LI-COR Odyssey Imaging System. Quantification of spot intensities and peptide annotation were based on the 16-bit gray scale tiff files. Microarray image analysis was done with PepSlide® Analyzer.

[2] = molecular target: T2, Lrig-1 epitope peptide SEQ ID NO: 25
T2 peptide: FGHEGRYQCVITNHF
Method: as §1

[3] = molecular target: T3, Lrig-1 epitope peptide SEQ ID NO: 27
T3 peptide: RRMHVMPDDDVFF
Method: as §1

[4] = molecular target: T4, Lrig-1 epitope peptide SEQ ID NO: 24
T4 peptide: RQVTFGHEGRY
Method: as §1

[5] = molecular target: T5, Lrig-1 epitope peptide SEQ ID NO: 23
T5 peptide: WLPPWLIGRMLQAF
Method: as §1

[6] = molecular target: T6, Lrig-1 epitope peptide SEQ ID NO: 28
T6 peptide: FFITDVKIDDAGVYS
Method: as §1

[7] = molecular target: T7, Lrig-1 epitope peptide SEQ ID NO: 26
T7 peptide: RLTVNVLPSFTKTPH
Method: as §1

[8] = molecular target: T8, Lrig-1 epitope peptide SEQ ID NO: 18
T8 construct: it was not itself a separately tested peptide
T8 peptide: WTRSLNLSYNKL
Method: as §1

[9] = molecular target: T9, Lrig-1 epitope peptide SEQ ID NO: 22
T9 peptide: NSIARIHRKGW
Method: as §1

[10] = molecular target: T10, Lrig-1 epitope peptide SEQ ID NO: 21
T10 peptide: DLNRNRIRLIEGLTF
Method: as §1

[11] = molecular target: T11, Lrig-1 epitope peptide SEQ ID NO: 20
T11 peptide: RLTQLDLNRNRIR
Method: as §1

Measured: binding result

B1: H6 clone monoclonal antibody (Production Example 8) (antibody, mouse IgG2a, V domains shown)
VH: EVQLLESGGGLVQPGGSLRLSCAASGFTFSNYAMSWVRQAPGKGLEWVSVISHGGGSTYYADSVKGRFTISRDNSKNTLYLQMNSLRAEDTAVYYCARVISNCHLGVCYYSNGMDVWGQGTLVTVSS
VL: QSVLTQPPSASGTPGQRVTISCSGSSSNIGNNDVYWYQQLPGTAPKLLIYSDSQRPSGVPDRFSGSKSGTSASLAISGLRSEDEADYYCGTWDYSLSGYVFGGGTKLTVLR
notes: also called H6 monoclonal antibody
binds: [1] | [2] | [3] | [4] | [5] | [6] | [7] | [8] | [9] | [10] | [11]
